This is an account of results in patent publication US20200199244A1 (published 2020).

Residue numbers refer to the chain shown, from its start. “And” between values parts separate entries of the source, which are not always exact repeats. Equal values may be shown once.

For test [1], the target named is T1, wild type human CD40 Fc fusion (human, UniProt P25942 21-193).
T1 construct: also called wt-hCD40; not shown: human IgG1 Fc
Briefly: SPR, ProteOn XPR36; CD40-Fc captured, dAb analyte; 1:1 fit;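 further: CD40-Fc captured on anti-human IgG(Fc) surface of a GLC chip, buffer pH 7.1, sensorgrams double-referenced against surfaces without CD40-Fc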; repeat.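 Further: CD40-Fc held on a GLC chip by an immobilized anti-human IgG(Fc) antibody, sensorgrams double-referenced against CD40-free surfaces, running buffer sodium phosphate with NaCl and Tween 20 at pH 7.1.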 In general terms: In SPR one partner is held on a chip, and binding of the other changes the refractive index at the surface.

Test [2] deals with T2, human CD40 (W109R) Fc fusion (Chimpanzee CD40) (human, UniProt P25942 21-193).
T2 construct: Same construct as wt-hCD40 with W109R (the residue of chimpanzee CD40); also called hCD40-M3; hCD40 M3 (W109R); not shown: human IgG1 Fc
Briefly: SPR, ProteOn XPR36; CD40-Fc captured, dAb analyte; 1:1 fit.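 Further: CD40-Fc captured on anti-human IgG(Fc) surface of a GLC chip, buffer pH 7.1, sensorgrams double-referenced against surfaces without CD40-Fc.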

For test [3], the target named is T1, wild type human CD40 Fc fusion. The test is described as above.
Description: Assays were performed on a BioRad ProteOn XPR36 SPR instrument. The SPR surfaces were prepared by immobilizing 8 μg/ml anti-human IgG(Fc) antibody (Biacore/GE Healthcare) in 10 mM sodium acetate pH 4.5 on a BioRad GLC sensor chip using standard ethyl(dimethylaminopropyl) carbodiimide (EDC)/N-hydroxysuccinimide (NHS) chemistry, with ethanolamine blocking. The running buffer for immobilization and kinetic binding analysis was 10 mM sodium phosphate, 130 mM sodium chloride, 0.05% tween 20, pH 7.1. CD40-Fc fusion proteins at concentrations of 20 μg/ml were captured in the vertical orientation on these surfaces via the Fc tail, and reference surfaces lacking CD40-Fc proteins were used for reference subtraction. […] The surfaces were regenerated in both horizontal and vertical orientations with 30 s pulses of 3 M MgCl₂ followed by running buffer at 60 μl/min. Sensogram data was double-referenced and then fitted to a 1:1 Langmuir model using BioRad ProteOn Manager V.2.1.0.38 software, to determine the association rate constant (ka), the dissociation rate constant (kd), and the equilibrium dissociation constant (KD).
For test [4], the target named is T3, wild type cynomolgus monkey CD40 Fc fusion (cynomolgus monkey (Macaca …)).
T3 construct: also called wt-cCD40; wt-cyno-CD40; not shown: human IgG1 Fc
T3 chain: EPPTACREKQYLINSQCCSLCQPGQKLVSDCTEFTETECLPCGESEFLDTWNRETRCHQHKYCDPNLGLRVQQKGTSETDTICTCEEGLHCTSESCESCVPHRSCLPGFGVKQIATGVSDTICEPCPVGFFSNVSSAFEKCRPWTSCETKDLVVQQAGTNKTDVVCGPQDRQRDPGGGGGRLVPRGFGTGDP
The test is described as above.

Test [5] addresses T4, human CD40 (W109L, L121P) Fc fusion (human, UniProt P25942 21-193).
T4 construct: Same construct as wt-hCD40 with W109L and L121P; also called hCD40-M4; hCD40 M4 (W109L, L121P); not shown: human IgG1 Fc
The description is as above.

Test [6] has as its target T5, human CD40 (H76R, W109L, L121P) Fc fusion (human).
T5 construct: Same construct as wt-hCD40 with H76R, W109L and L121P; also called hCD40-M5; hCD40-M5 (H76R, W109L, L121P); not shown: human IgG1 Fc
T5 chain: T3 chain with S95A, L106S, R142H, Q172L
Described as above.

In test [7] the target is T6, human CD40 (H76R) Fc fusion (human, UniProt P25942 21-193).
T6 construct: also called hCD40-M1; hCD40 M1 (H76R); not shown: human IgG1 Fc
The test is described as above.

Test [8] concerns the target T7, human CD40 (W109L) Fc fusion (human, UniProt P25942 21-193).
T7 construct: Same construct as wt-hCD40 with W109L; also called hCD40-M2; hCD40 M2 (W109L); not shown: human IgG1 Fc
Described as above.

In the next test the target is T8, cynomolgus serum albumin (cynomolgus, UniProt A2V9Z4 25-608).
T8 construct: Amine-coupled to a CM5 BIAcore chip; also called CSA; Cyno Serum Albumin
T8 sequence (A2V9Z4 25-608 limits assumed): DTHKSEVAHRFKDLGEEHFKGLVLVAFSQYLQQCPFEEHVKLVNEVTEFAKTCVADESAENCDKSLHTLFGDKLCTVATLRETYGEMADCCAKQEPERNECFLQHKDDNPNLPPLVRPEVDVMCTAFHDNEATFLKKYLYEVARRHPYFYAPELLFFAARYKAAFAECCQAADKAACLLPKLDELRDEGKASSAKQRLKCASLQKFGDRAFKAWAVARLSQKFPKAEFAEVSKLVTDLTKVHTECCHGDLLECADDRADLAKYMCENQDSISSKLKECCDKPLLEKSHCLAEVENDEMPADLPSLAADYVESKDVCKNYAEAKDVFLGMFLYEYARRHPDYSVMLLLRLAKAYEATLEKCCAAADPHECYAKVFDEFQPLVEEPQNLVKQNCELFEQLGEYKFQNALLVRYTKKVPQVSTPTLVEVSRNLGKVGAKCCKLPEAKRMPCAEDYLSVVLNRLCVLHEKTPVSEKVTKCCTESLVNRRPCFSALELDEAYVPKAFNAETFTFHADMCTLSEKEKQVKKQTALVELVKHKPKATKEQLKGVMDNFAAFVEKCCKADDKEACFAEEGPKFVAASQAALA
Briefly: SPR (BIAcore 3000), CSA amine-coupled on CM5 chip, ILF as analyte, 1:1 Langmuir fit, 25 C.

The target in test [9] is T9, human CD40 (human, UniProt P25942 21-277).
T9 construct: Native on primary human tonsillar B cells, monocyte-derived dendritic cells and RAMOS cells; stably transfected on CHO-DG44 cells; also called hCD40
Description: CHO-CD40 cell RBA: competition with biotinylated human IZ-CD40L for human CD40 on CHO cells, fluorescence (FMAT); 0.1% BSA.

The target in test [10] is T9, human CD40. Description: CHO-CD40 cell RBA: competition with biotinylated human IZ-CD40L for human CD40 on CHO cells, fluorescence (FMAT); 50 µM HSA.
The target of the next test is T10, human serum albumin (human, UniProt P02768 25-609).
T10 construct: Amine-coupled to a CM5 BIAcore chip; also called HSA
T10 sequence (P02768 25-609 limits assumed): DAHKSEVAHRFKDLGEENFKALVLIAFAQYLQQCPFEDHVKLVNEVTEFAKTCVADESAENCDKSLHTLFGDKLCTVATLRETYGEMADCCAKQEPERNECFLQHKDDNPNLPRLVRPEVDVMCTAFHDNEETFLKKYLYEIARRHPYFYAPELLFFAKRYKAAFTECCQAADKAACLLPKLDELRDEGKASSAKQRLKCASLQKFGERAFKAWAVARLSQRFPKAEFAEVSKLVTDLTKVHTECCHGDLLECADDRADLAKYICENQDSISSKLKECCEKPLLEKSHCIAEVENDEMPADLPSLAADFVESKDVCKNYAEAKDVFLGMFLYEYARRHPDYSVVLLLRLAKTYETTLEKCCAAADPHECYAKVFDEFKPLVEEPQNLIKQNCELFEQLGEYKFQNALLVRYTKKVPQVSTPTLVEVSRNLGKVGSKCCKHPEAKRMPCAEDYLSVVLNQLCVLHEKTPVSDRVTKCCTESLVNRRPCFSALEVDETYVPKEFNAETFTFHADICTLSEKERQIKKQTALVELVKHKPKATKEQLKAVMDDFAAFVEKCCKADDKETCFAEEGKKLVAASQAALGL
Description: SPR (BIAcore 3000), HSA amine-coupled on CM5 chip, ILF as analyte, 1:1 Langmuir fit, 25 C.

The target in test [11] is T9, human CD40. Description: cell-based or functional assay.

Description for cynomolgus serum albumin: (§1) A BIAcore™ 3000 instrument (GE Healthcare) was used to analyze the binding kinetics of anti-CD40-AlbudAb ILFs to human and cynomolgus serum albumin. Approximately 400 response units (RU) of human serum albumin (HSA) or cynomolgus serum albumin (CSA) were immobilized on a flow-cell of a CM5 BIAcore™ chip using an Amine Coupling Kit (GE Healthcare). A second flow cell without any ligand immobilized served as a reference flow-cell for inline referencing. An appropriate doubling dilution series of each dAb to be analyzed was prepared in HBS-EP buffer (0.01 M HEPES pH 7.4 with 0.15 M NaCl, 3 mM EDTA and 0.005% v/v Surfactant P20, GE Healthcare). Two hundred microlitres of each ILF were injected in duplicate using the instrument's KINJECT function. The injections were made across the serum albumin-immobilized and reference flow-cells in series, with inline subtraction of the signal from the reference cell. The experiment was performed at 25° C. and a flow rate of 40 μl/min of HBS-EP. After each injection had been completed, the dAb was allowed to dissociate from the ligand in buffer for 120 s before regeneration with a 10 μl injection of 10 mM glycine pH 2.0. A reference injection of HBS-EP buffer blank (containing no analyte) was also injected under the same conditions to serve as a second reference for subtraction from each analyte trace. BIAevaluation 4.1 software (GE Healthcare) was used to subtract both the reference flow-cell trace and the buffer blank trace from each analyte trace.
(§2) The same software was used to perform a simultaneous, global fit of a 1:1 (Langmuir) kinetic model to the association and dissociation phases of the analyte dilution series traces. This model yielded association and dissociation rate constants (kₐ and kd, respectively) and the equilibrium dissociation constant (KD) of the interaction.
Description for human serum albumin: as §1, §2

B1: BMS3h-217-16 (other)
VL: DIQMTQSPSSLSASVGDRVTITCRASHFIGTLLSWYQQKPRKAPKLLITYGSLLQSGVPSRFSGSGSGTDFTLTISSLQPEDFATYYCGQGVLWPPTFGQGTKVEIKR
notes: Anti-human CD40 domain antibody (dAb), single V kappa domain
For B1, the Kd amounted to 0.26 nM in test [1]; 0.27 nM in test [2]; 0.22 nM in test [3]; 0.43 nM in test [4]; 0.35 nM in test [5]; 0.47 nM in [6]. The Kd in test [7] is 0.35 nM; in test [8], 0.41 nM. The koff in test [1] was determined as 0.000847 s⁻¹; in test [2], 0.00104 s⁻¹; in test [3] it was 0.000991 s⁻¹; in test [4], 0.00147 s⁻¹; in [5] it was 0.00152 s⁻¹; in test [6], 0.0017 s⁻¹. The figures for the koff in test [7] and in test [8] were 0.00168 s⁻¹ and 0.00167 s⁻¹, respectively. In addition, the kon in test [1] was determined as 3.3e+06 M⁻¹ s⁻¹; in test [2], 3.78e+06 M⁻¹ s⁻¹; in test [3], 4.47e+06 M⁻¹ s⁻¹; in test [4] it was 3.44e+06 M⁻¹ s⁻¹; in [5], 4.39e+06 M⁻¹ s⁻¹; in test [6], 3.65e+06 M⁻¹ s⁻¹. Besides, the kon in test [7] was 4.83e+06 M⁻¹ s⁻¹; in test [8] it was 4.06e+06 M⁻¹ s⁻¹.

B2: BMS3h-217-5 (other)
VL: B1 VL with S10F, G30A, R41G
notes: as for B1
As to B2, the Kd came to 0.48 nM in test [1]; 0.72 nM in test [2]; 0.47 nM in [3]; 0.86 nM in test [4]; 0.93 nM in test [5]; 0.99 nM in test [6]. Also, the Kd in test [7] came to 0.94 nM; in test [8], 0.99 nM. The koff in [1] was 0.000981 s⁻¹; in test [2], 0.00196 s⁻¹; in [3], 0.00127 s⁻¹; in test [4] it was 0.00212 s⁻¹; in test [5] it was 0.00259 s⁻¹; in test [6], 0.00242 s⁻¹. The values for the koff in test [7] and in test [8] were 0.00299 s⁻¹ and 0.00251 s⁻¹, respectively. Besides, the kon in test [1] was found to be 2.03e+06 M⁻¹ s⁻¹; in test [2], 2.73e+06 M⁻¹ s⁻¹; in [3], 2.71e+06 M⁻¹ s⁻¹; in [4], 2.46e+06 M⁻¹ s⁻¹; in [5], 2.78e+06 M⁻¹ s⁻¹; in test [6] it was 2.44e+06 M⁻¹ s⁻¹. Further, the kon in test [7] came to 3.17e+06 M⁻¹ s⁻¹; in [8], 2.55e+06 M⁻¹ s⁻¹.

B3: BMS3h-217-23 (other)
VL: B1 VL with T31S, Q38V, R41G, P96A, K103T
notes: as for B1
As for B3, the Kd was determined as 1.52 nM in test [1]; 1.22 nM in [2]; 0.78 nM in test [3]; 1.9 nM in test [4]; 1.61 nM in test [5]; 2.21 nM in [6]. Moreover, the values for the Kd in [7] and in test [8] were 1.59 nM and 1.95 nM, respectively. For the same molecule, the koff in test [1] was determined as 0.00163 s⁻¹; in test [2], 0.00186 s⁻¹; in test [3] it was 0.00127 s⁻¹; in [4], 0.00235 s⁻¹; in [5], 0.00268 s⁻¹; in test [6], 0.00287 s⁻¹. Also, the results for the koff in [7] and in test [8] were 0.00262 s⁻¹ and 0.00291 s⁻¹, respectively. The kon in test [1] was determined as 1.07e+06 M⁻¹ s⁻¹; in test [2] it was 1.53e+06 M⁻¹ s⁻¹; in test [3], 1.64e+06 M⁻¹ s⁻¹; in test [4], 1.24e+06 M⁻¹ s⁻¹; in test [5], 1.67e+06 M⁻¹ s⁻¹; in test [6] it was 1.3e+06 M⁻¹ s⁻¹. Besides, the kon stood at 1.64e+06 M⁻¹ s⁻¹ in test [7] and 1.49e+06 M⁻¹ s⁻¹ in test [8].

B4: DMS0659 DOM7h-11-87-TVAAPS-BMS3h-56-201 (bispecific antibody)
chain: DIQMTQSPSSLSASVGDRVTITCRASRPIGTMLSWYQQKPGKAPKLLILAFSRLQSGVPSRFSGSGSGTDFTLTISSLQPEDFATYYCAQAGTHHTTFGQGTKVEIKRTVAAPSEVQLLESGGGLVQPGGSLRLSCAASGFTFRDYEMWWVRQAPGKGLERVSAINPQGTRTYYADSVKGRFTISRDNSKNTLYLQMNSLRAEDTAVYYCAKLPFYFQEWGQGTLVTVSS
notes: AlbudAb inline fusion (ILF): an anti-CD40 dAb and an anti-serum-albumin dAb joined by a linker in one polypeptide
Regarding B4, the koff with cynomolgus serum albumin is 0.00237 s⁻¹ and 0.00337 s⁻¹ and 0.0024 s⁻¹; with human serum albumin, 0.00117 s⁻¹ and 0.00169 s⁻¹ and 0.0012 s⁻¹. Moreover, the figures for the EC50 in the test with human CD40 [9] and with human CD40 [10] were 7.2 nM and 3.3 nM, respectively.

B5: DMS0658 DOM7h-11-3-TVAAPS-BMS3h-56-201 (bispecific antibody)
chain: B4 chain with M32T, A50W, F51N, H95P
notes: as for B4
As for B5, the EC50 with human CD40 [9] worked out at 12.2 nM; with human CD40 [10], 9.1 nM.

B6: DMS0660 DOM7h-11-3-TVAAPS-BMS3h-56-258 (bispecific antibody)
chain: B4 chain with M32T, A50W, F51N, H95P, Q218H
notes: as for B4
As for B6, the EC50 turned out to be 21.8 nM with human CD40 [9] and 13.1 nM in the test with human CD40 [10].

B7: DMS0661 DOM7h-11-87-TVAAPS-BMS3h-56-258 (bispecific antibody)
chain: B4 chain with Q218H
notes: as for B4
In the case of B7, the figures for the EC50 with human CD40 [9] and with human CD40 [10] were 4.1 nM and 5.7 nM, respectively.

B8: DMS0664 DOM7h-11-69-TVAAPS-BMS3h-56-201 (bispecific antibody)
chain: B4 chain with T93V, H95P
notes: as for B4
For B8, in the test with cynomolgus serum albumin, the Kd is 1.09 nM and 2.97 nM; the koff was 0.00273 s⁻¹ and 0.00272 s⁻¹; the kon is 2.51e+06 M⁻¹ s⁻¹ and 920000 M⁻¹ s⁻¹. In the test with human CD40 [11], the “ICAM-1 Cell Assay EC50 (nM), 10% bovine serum” value came out at 16.5 nM and the “ICAM-1 Cell Assay EC50 (nM), 10% human serum” value is above 1000 nM. Besides, in the test with human serum albumin, the Kd is 0.57 nM and 1.59 nM; the koff is 0.00142 s⁻¹ and 0.00149 s⁻¹; the kon was 2.5e+06 M⁻¹ s⁻¹ and 930000 M⁻¹ s⁻¹.

B9: DMS0654 BMS3h-56-201-AST-DOM7h-11-3 (bispecific antibody)
chain: EVQLLESGGGLVQPGGSLRLSCAASGFTFRDYEMWWVRQAPGKGLERVSAINPQGTRTYYADSVKGRFTISRDNSKNTLYLQMNSLRAEDTAVYYCAKLPFYFQEWGQGTLVTVSSASTDIQMTQSPSSLSASVGDRVTITCRASRPIGTTLSWYQQKPGKAPKLLILWNSRLQSGVPSRFSGSGSGTDFTLTISSLQPEDFATYYCAQAGTHPTTFGQGTKVEIKR
notes: as for B4
Consider B9, for which the EC50 in the test with human CD40 [9] came out at 15 nM; in the test with human CD40 [10], 8.6 nM.

B10: DMS0655 BMS3h-56-201-AST-DOM7h-11-87 (bispecific antibody)
chain: B9 chain with T151M, W169A, N170F, P214H
notes: as for B4
For B10, the EC50 with human CD40 [9] was determined as 6.3 nM; in the test with human CD40 [10] it was 2.7 nM.

B11: DMS0656 BMS3h-56-258-AST-DOM7h-11-3 (bispecific antibody)
chain: B9 chain with Q104H
notes: as for B4
As for B11, the EC50 with human CD40 [9] is 11.8 nM; in the test with human CD40 [10] it was 26.8 nM.

B12: DMS0657 BMS3h-56-258-AST-DOM7h-11-87 (bispecific antibody)
chain: B9 chain with Q104H, T151M, W169A, N170F, P214H
notes: as for B4
On to B12, for which the values for the EC50 in the test with human CD40 [9] and with human CD40 [10] were 6.8 nM and 16.6 nM, respectively.

For orientation: Kd means a measure of binding affinity in units of concentration. By koff is commonly meant a measure of how fast the partners let go of each other. A word on the kon: it is the rate constant with which the complex forms. Broadly, the EC50 is the concentration that produces a half-maximal response.
